According to patent EP0817650B1:

What was measured:
[1] = target: MHC Class II products on splenic antigen-presenting cells of SJL mice (H-2 s) (mouse); experiment: flow cytometry, inhibition of binding to SJL splenic APC; competitor: biotinylated peptide IIIa
[2] = target: MHC Class II products on splenic antigen-presenting cells of SJL mice (H-2 s) (mouse); experiment: flow cytometry, inhibition of binding to SJL splenic APC; competitor: biotinylated peptide Ia
[3] = target: MHC Class II products on splenic antigen-presenting cells of C3H.SW mice (H-2 b) (mouse) (UniProt P14434); experiment: flow cytometry, inhibition of binding to C3H.SW splenic APC; competitor: biotinylated peptide Ia
[4] = target: MHC Class II products on splenic antigen-presenting cells of C57BL/6 mice (H-2 b) (mouse) (UniProt P14434); experiment: flow cytometry, inhibition of binding to C57BL/6 splenic APC; competitor: biotinylated peptide Ia
[5] = target: MHC Class II products on splenic antigen-presenting cells of C57BL/6 mice (H-2 b) (mouse) (UniProt P14434); experiment: flow cytometry, inhibition of binding to C57BL/6 splenic APC; competitor: biotinylated peptide IIIa
[6] = target: T1, MHC Class II products on splenic antigen-presenting cells of BALB/c mice (H-2 d) (mouse) (UniProt P04228); experiment: flow cytometry, inhibition of binding to BALB/c splenic APC; competitor: biotinylated peptide Ia
T1 sequence (alpha): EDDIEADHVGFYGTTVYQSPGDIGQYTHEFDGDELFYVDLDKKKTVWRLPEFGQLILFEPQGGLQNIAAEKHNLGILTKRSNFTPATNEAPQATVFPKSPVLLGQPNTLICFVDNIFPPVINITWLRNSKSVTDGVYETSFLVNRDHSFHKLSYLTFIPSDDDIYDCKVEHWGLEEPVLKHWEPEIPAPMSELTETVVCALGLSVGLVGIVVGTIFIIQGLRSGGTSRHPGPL
T1 sequence (beta): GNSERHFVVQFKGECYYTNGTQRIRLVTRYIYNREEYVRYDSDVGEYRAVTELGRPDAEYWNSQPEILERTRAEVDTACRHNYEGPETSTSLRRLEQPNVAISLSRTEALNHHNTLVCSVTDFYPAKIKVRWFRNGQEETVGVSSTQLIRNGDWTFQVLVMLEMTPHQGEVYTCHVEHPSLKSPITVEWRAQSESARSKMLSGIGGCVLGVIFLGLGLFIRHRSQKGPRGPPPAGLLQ

[7] = target: T1, MHC Class II products on splenic antigen-presenting cells of BALB/c mice (H-2 d) (mouse); experiment: flow cytometry, inhibition of binding to BALB/c splenic APC; competitor: biotinylated peptide IIIa
[8] = target: MHC Class II products on splenic antigen-presenting cells of C3H.SW mice (H-2 b) (mouse) (UniProt P14434); experiment: flow cytometry, inhibition of binding to C3H.SW splenic APC; competitor: biotinylated peptide IIIa

Row | %inhibition [1] [%] | %inhibition [2] [%] | %inhibition [3] [%] | %inhibition [4] [%] | %inhibition [5] [%] | %inhibition [6] [%] | %inhibition [7] [%] | %inhibition [8] [%] | Substance
1 | 92.8 | 100 | – | – | – | – | – | – | 10.3.6.2 (anti-I-A^s) (antibody)
2 | – | – | 60 | 82 | 59.3 | 0 | 0 | 84.4 | 34-5-3 (anti-I-A^b, Pharmingen) (antibody)
3 | 0 | 0 | 0 | 0 | 0 | 76.7 | 100 | 25 | MKD6 (anti-I-A^d, Beckton-Dickinson) (antibody)
